Test results from patent publication US20190135918A1 (ICHNOS SCIENCES, published 2019).

What was measured:
[1] = target: T1, human CD3 epsilon 1-26_Fc fusion protein (human); test: SPR, human IgG1 format, graded relative to chimeric SP34; one grade for human and cynomolgus protein
T1 construct: also called human CD3 1-26_Fc fusion protein

[2] = target: T2, cynomolgus monkey CD3 epsilon 1-26_Fc fusion protein (cynomolgus monkey); test: as above
T2 construct: also called cynomolgus CD3 epsilon 1-26 Fc fusion protein

| Binder | binding result [1] | binding result [2] |
| --- | --- | --- |
| Chimeric SP34 (antibody, human IgG1, kappa, V domains shown, IgG1; also called chimeric SP34 antibody; SP34 chimera) VH: EVQLVESGGGLVQPKGSLKLSCAASGFTFNTYAMNWVRQAPGKGLEWVARIRSKYNNYATYYADSVKDRFTISRDDSQSILYLQMNNLKTEDTAMYYCVRHGNFGNSYVSWFAYWGQGTLVTVSA VL: QAVVTQESALTTSPGETVTLTCRSSTGAVTTSNYANWVQEKPDHLFTGLIGGTNKRAPGVPARFSGSLIGDKAALTITGAQTEDEAIYFCALWYSNLWVFGGGTKLTVLR | binds | binds |
| VH1/VL2 (antibody, human IgG1, kappa, IgG1; SP34 series; copies: 2 + 2) heavy: not shown light: EAVVTQSPATLSVSPGERATLSCRSSTGAVTTSNYANWVQEKPGQAFRGLIGGANKRAPGVPARFSGSLSGDEATLTISSLQSEDFAVYFCALWYSNLWVFGQGTKLEIKRTVAAPSVFIFPPSDEQLKSGTASVVCLLNNFYPREAKVQWKVDNALQSGNSQESVTEQDSKDSTYSLSSTLTLSKADYEKHKVYACEVTHQGLSSPVTKSFNRGEC | binds | binds |
| VH1/VL5 (antibody, human IgG1, kappa, IgG1; also called humanized SP34 VH1/VL5 antibody; copies: 2 + 2) heavy: not shown light: EIVVTQSPATLSVSPGERATLSCRSSTGAVTTSNYANWVQEKPGQAFRGLIGGANKRAPGVPARFSGSLSGDEATLTISSLQSEDFAVYFCALWYSNLWVFGQGTKLEIKRTVAAPSVFIFPPSDEQLKSGTASVVCLLNNFYPREAKVQWKVDNALQSGNSQESVTEQDSKDSTYSLSSTLTLSKADYEKHKVYACEVTHQGLSSPVTKSFNRGEC | binds | binds |
| VH1/VL6 (antibody, human IgG1, kappa, V domains shown, IgG1; also called humanized SP34 VH1/VL6 antibody; copies: 2 + 2) VH: EVQLVESGGGLVQPGGSLRLSCAASGFTFNTYAMNWVRQAPGKGLEWVARIRSKYNNYATYYADSVKGRFTISRDDSKNTLYLQMNSLRAEDTAVYYCVRHGNFGNSYVSWFAYWGQGTTVTVSS VL: EAVVTQSPATLSVSPGERATLSCRSSTGAVTTSNYANWVQEKPGQAPRGLIGGANKRAPGVPARFSGSLSGDEATLTISSLQSEDFAVYFCALWYSNLWVFGQGTKLEIKR | binds | binds |
| VH1/VL8 (antibody, human IgG1, kappa, V domains shown, IgG1; also called humanized SP34 VH1/VL8 antibody; copies: 2 + 2) VH: EVQLVESGGGLVQPGGSLRLSCAASGFTFNTYAMNWVRQAPGKGLEWVARIRSKYNNYATYYADSVKGRFTISRDDSKNTLYLQMNSLRAEDTAVYYCVRHGNFGNSYVSWFAYWGQGTTVTVSS VL: EAVVTQSPATLSVSPGERATLSCRSSTGAVTTSNYANWVQEKPGQAFRGLIGGANKRAPGVPARFSGSGSGDEATLTISSLQSEDFAVYFCALWYSNLWVFGQGTKLEIKR | binds | binds |
| VH1/VL10 (antibody, human IgG1, kappa, IgG1; also called humanized SP34 VH1/VL10 antibody; copies: 2 + 2) heavy: not shown light: EAVVTQSPATLSVSPGERATLSCRSSTGAVTTSNYANWVQEKPGQAFRGLIGGANKRAPGVPARFSGSLSGDEATLTISSLQSEDFAVYYCALWYSNLWVFGQGTKLEIKRTVAAPSVFIFPPSDEQLKSGTASVVCLLNNFYPREAKVQWKVDNALQSGNSQESVTEQDSKDSTYSLSSTLTLSKADYEKHKVYACEVTHQGLSSPVTKSFNRGEC | binds | binds |
| VH1/VL11 (antibody, human IgG1, kappa, V domains shown, IgG1; also called humanized SP34 VH1/VL11 antibody; copies: 2 + 2) VH: EVQLVESGGGLVQPGGSLRLSCAASGFTFNTYAMNWVRQAPGKGLEWVARIRSKYNNYATYYADSVKGRFTISRDDSKNTLYLQMNSLRAEDTAVYYCVRHGNFGNSYVSWFAYWGQGTTVTVSS VL: EAVVTQSPATLSVSPGERATLSCRSSTGAVTTSNYANWVQEKPGQAFRGLIGGANKRAPGVPARFSGSGSGTEATLTISSLQSEDFAVYFCALWYSNLWVFGQGTKLEIKR | binds | binds |
| VH1/VL12 (antibody, human IgG1, kappa, IgG1; also called humanized SP34 VH1/VL12 antibody; copies: 2 + 2) heavy: not shown light: EAVVTQSPATLSVSPGERATLSCRSSTGAVTTSNYANWVQEKPGQAFRGLIGGANKRAPGVPARFSGSLSGTEATLTISSLQSEDFAVYFCALWYSNLWVFGQGTKLEIKRTVAAPSVFIFPPSDEQLKSGTASVVCLLNNFYPREAKVQWKVDNALQSGNSQESVTEQDSKDSTYSLSSTLTLSKADYEKHKVYACEVTHQGLSSPVTKSFNRGEC | binds | binds |
| VH1/VL13 (antibody, human IgG1, kappa, IgG1; also called humanized SP34 VH1/VL13 antibody; copies: 2 + 2) heavy: not shown light: EAVVTQSPATLSVSPGERATLSCRASTGAVTTSNYANWVQEKPGQAFRGLIGGANKRAPGVPARFSGSLSGDEATLTISSLQSEDFAVYFCALWYSNLWVFGQGTKLEIKRTVAAPSVFIFPPSDEQLKSGTASVVCLLNNFYPREAKVQWKVDNALQSGNSQESVTEQDSKDSTYSLSSTLTLSKADYEKHKVYACEVTHQGLSSPVTKSFNRGEC | binds | binds |
| VH1/VL14 (antibody, human IgG1, kappa, V domains shown, IgG1; also called humanized SP34 VH1/VL14 antibody; copies: 2 + 2) VH: EVQLVESGGGLVQPGGSLRLSCAASGFTFNTYAMNWVRQAPGKGLEWVARIRSKYNNYATYYADSVKGRFTISRDDSKNTLYLQMNSLRAEDTAVYYCVRHGNFGNSYVSWFAYWGQGTTVTVSS VL: EAVVTQSPATLSVSPGERATLSCRSSTGAVTTSNYANWVQEKPGQAFRLLIGGANKRAPGVPARFSGSLSGDEATLTISSLQSEDFAVYFCALWYSNLWVFGQGTKLEIKR | no binding (tested: not printed) | no binding (tested: not printed) |
| VH1/VL15 (antibody, human IgG1, kappa, V domains shown, IgG1; also called humanized SP34 VH1/VL15 antibody; copies: 2 + 2) VH: EVQLVESGGGLVQPGGSLRLSCAASGFTFNTYAMNWVRQAPGKGLEWVARIRSKYNNYATYYADSVKGRFTISRDDSKNTLYLQMNSLRAEDTAVYYCVRHGNFGNSYVSWFAYWGQGTTVTVSS VL: EAVVTQSPATLSVSPGERATLSCRSSTGAVTTSNYANWVQQKPGQAFRGLIGGANKRAPGVPARFSGSLSGDEATLTISSLQSEDFAVYFCALWYSNLWVFGQGTKLEIKR | binds | binds |
| VH1/VL16 (antibody, human IgG1, kappa, IgG1; also called humanized SP34 VH1/VL16 antibody; copies: 2 + 2) heavy: not shown light: EIVVTQSPATLSVSPGERATLSCRSSTGAVTTSNYANWVQEKPGQAFRGLIGGANKRAPGVPARFSGSLSGTEATLTISSLQSEDFAVYFCALWYSNLWVFGQGTKLEIKRTVAAPSVFIFPPSDEQLKSGTASVVCLLNNFYPREAKVQWKVDNALQSGNSQESVTEQDSKDSTYSLSSTLTLSKADYEKHKVYACEVTHQGLSSPVTKSFNRGEC | binds | binds |
| VH1/VL17 (antibody, human IgG1, kappa, IgG1; also called humanized SP34 VH1/VL17 antibody; copies: 2 + 2) heavy: not shown light: EIVVTQSPATLSVSPGERATLSCRASTGAVTTSNYANWVQEKPGQAFRGLIGGANKRAPGVPARFSGSLSGDEATLTISSLQSEDFAVYFCALWYSNLWVFGQGTKLEIKRTVAAPSVFIFPPSDEQLKSGTASVVCLLNNFYPREAKVQWKVDNALQSGNSQESVTEQDSKDSTYSLSSTLTLSKADYEKHKVYACEVTHQGLSSPVTKSFNRGEC | binds | binds |
| VH1/VL18 (antibody, human IgG1, kappa, IgG1; also called humanized SP34 VH1/VL18 antibody; copies: 2 + 2) heavy: not shown light: EIVVTQSPATLSVSPGERATLSCRSSTGAVTTSNYANWVQEKPGQAFRGLIGGANKRAPGVPARFSGSLSGDEATLTISSLQSEDFAVYFCALWYSNLWVFGGGTKLEIKRTVAAPSVFIFPPSDEQLKSGTASVVCLLNNFYPREAKVQWKVDNALQSGNSQESVTEQDSKDSTYSLSSTLTLSKADYEKHKVYACEVTHQGLSSPVTKSFNRGEC | binds | binds |
| VH1/VL19 (antibody, human IgG1, kappa, V domains shown, IgG1; also called humanized SP34 VH1/VL19 antibody; copies: 2 + 2) VH: EVQLVESGGGLVQPGGSLRLSCAASGFTFNTYAMNWVRQAPGKGLEWVARIRSKYNNYATYYADSVKGRFTISRDDSKNTLYLQMNSLRAEDTAVYYCVRHGNFGNSYVSWFAYWGQGTTVTVSS VL: EIVVTQSPATLSVSPGERATLSCRSSTGAVTTSNYANWVQEKPGQAFRGLIGGANKRAPGVPARFSGSLSGTEATLTISSLQSEDFAVYYCALWYSNLWVFGQGTKLEIKR | binds | binds |
| VH1/VL21 (antibody, human IgG1, kappa, IgG1 format of the variable domains of m38; also called humanized SP34 VH1/VL21 antibody (IgG1 format); H1L21 IgG1; copies: 2 + 2) heavy: not shown light: EIVVTQSPATLSVSPGERATLSCRSSTGAVTTSNYANWVQEKPGQAFRGLIGGANKRAPGVPARFSGSLSGDEATLTISSLQSEDFAVYYCALWYSNLWVFGQGTKLEIKRTVAAPSVFIFPPSDEQLKSGTASVVCLLNNFYPREAKVQWKVDNALQSGNSQESVTEQDSKDSTYSLSSTLTLSKADYEKHKVYACEVTHQGLSSPVTKSFNRGEC | binds | binds |
| VH1/VL22 (antibody, human IgG1, kappa, V domains shown, IgG1; also called humanized SP34 VH1/VL22 antibody; copies: 2 + 2) VH: EVQLVESGGGLVQPGGSLRLSCAASGFTFNTYAMNWVRQAPGKGLEWVARIRSKYNNYATYYADSVKGRFTISRDDSKNTLYLQMNSLRAEDTAVYYCVRHGNFGNSYVSWFAYWGQGTTVTVSS VL: EIVVTQSPATLSVSPGERATLSCRSSTGAVTTSNYANWVQQKPGQAFRGLIGGANKRAPGVPARFSGSLSGDEATLTISSLQSEDFAVYYCALWYSNLWVFGQGTKLEIKR | binds | binds |
| humanized SP34 prototype antibody VH1/VL1 (antibody, human IgG1, kappa, Human IgG1; Printed as 'variable heavy chain and light chain') VH: not shown VL: EAVVTQSPATLSVSPGERATLSCRSSTGAVTTSNYANWVQEKPGQAFRGLIGGANKRAPGVPARFSGSLSGDEATLTISSLQSEDFAVYFCQLWYSNLWVFGQGTKLEIKRTVAAPSVFIFPPSDEQLKSGTASVVCLLNNFYPREAKVQWKVDNALQSGNSQESVTEQDSKDSTYSLSSTLTLSKADYEKHKVYACEVTHQGLSSPVTKSFNRGEC | binds | binds |
| VH1/VL3 (antibody, IgG1; SP34 series; also called humanized SP34 VH1/VL3 antibody; copies: 2 + 2) heavy: not shown light: EAVVTQSATLSVSPGERATLSCRSSTGAVTTSNYANWVQEKPGQAFRGLIGGANKRAPGVPARFSGSLSGDEATLTISSLQSEDFAVYFCQLWYSNLWVFGQGTKLEIKRTVAAPSVFIFPPSDEQLKSGTASVVCLLNNFYPREAKVQWKVDNALQSGNSQESVTEQDSKDSTYSLSSTLTLSKADYEKHKVYACEVTHQGLSSPVTKSFNRGEC | no binding (tested: not printed) | no binding (tested: not printed) |
